# From publication PMC3438448, “Lis1 Acts as a “Clutch” between the ATPase and Microtubule-Binding Domains of the Dynein Motor” (Cell, 2012)
# Molecular target: the molecule itself
# Test: cross-linking; 0.5 μM protein ± 0.05% glutaraldehyde, 5 min, ambient temperature; 30 mM HEPES pH 7.2, 50 mM potassium acetate; SDS-PAGE; control pretreated with 4% LDS
protein,measurement,value
"Lis1 (S. cerevisiae Pac1) (natural protein, UniProt P39946 1-494, looked up, Lis1 ortholog Pac1 (PAC1), S. cerevisiae; also called dimeric Lis1; intact Lis1; source: S. cerevisiae, expressed from the genomic locus, purified (Ni-NTA, IgG sepharose, TEV cleavage)) MTNWQQQLPLTDTQKNELDKSVLRYLNWNYKQTVRHEHAQDYESVRHAIVTLSGFLLQESVDRQEFISNNDTSNESMVDIDELLLPKKWNSIVRLQKKIIELEQNTETLVSQIKDLNTQVSELAQFKPTTSNGTSAHNVLKWIPRNLPSCLINVESSVTSVKLHPNLPIVFVATDHGKLYAFDLFNYTIPLASLQSHTKAITSMDVLFTNYTNSSKKNYLVIVTASKDLQIHVFKWVSEECKFQQIRSLLGHEHIVSAVKIWQKNNDVHIASCSRDQTVKIWDFHNGWSLKTFQPHSQWVRSIDVLGDYIISGSHDTTLRLTHWPSGNGLSVGTGHEFPIEKVKFIHFIEDSPEIRFRTPSTDRYKNWGMQYCVSASRDRTIKIWEIPLPTLMAHRAPIPNPTDSNFRCVLTLKGHLSWVRDISIRGQYLFSCADDKSVRCWDLNTGQCLHVWEKLHTGFVNCLDLDVDFDSNVTPRQMMVTGGLDCKSNVFMR",stoichiometry N,2
